Assay results taken from the supplement of paper PMC7125110.
± gives the standard error. For some of these results: Variants at the floor of the assay were thinned out.

B1: glmS ribozyme (parent)
chain: AUAAAAGCGCCAGAACUACAGAAAUGUAGUUGACGAGGAGGAGGUUUAUCGAAUUUUCGGCGGAUGCCUCCAAA

Tests used:
Settings in all cases: with glucosamine-6-phosphate
[1] = variants of: B1; assay: kcat; higher = faster cleavage; RNA array
Summary of the method: (§1)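 Glucosamine-6-phosphate, from 40 μM to 10 mM in HEPES/KCl/Mg(OAc)2 buffer, was flowed over sequenced MiSeq chips carrying barcoded ribozyme variants transcribed in situ by E. coli RNA polymerase. A hybridised Cy3 probe tracked the variants at 37 °C as tiles were imaged over ~14 h. kobs, kcat and KM were obtained by fitting normalised per-tile medians to exponential decays and then applying weighted Michaelis–Menten fits across concentrations.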

[2] = variants of: B1; assay: KM; higher = weaker cofactor use; RNA array
Summary of the method: as §1

[3] = variants of: B1; assay: self-cleavage kobs at 40 uM GlcN6P; higher = faster cleavage; RNA array
Summary of the method: as §1

[4] = variants of: B1; assay: self-cleavage kobs at 160 uM GlcN6P; higher = faster cleavage; RNA array
Summary of the method: as §1

[5] = variants of: B1; assay: self-cleavage kobs at 640 uM GlcN6P; higher = faster cleavage; RNA array
Summary of the method: as §1

[6] = variants of: B1; assay: self-cleavage kobs at 2500 uM GlcN6P; higher = faster cleavage; RNA array
Summary of the method: as §1

[7] = variants of: B1; assay: self-cleavage kobs at 10000 uM GlcN6P; higher = faster cleavage; RNA array
Summary of the method: as §1

| Variant | kcat [1] [s⁻¹] | KM [2] [µM] | self-cleavage kobs at 40 uM GlcN6P [3] [s⁻¹] | self-cleavage kobs at 160 uM GlcN6P [4] [s⁻¹] | self-cleavage kobs at 640 uM GlcN6P [5] [s⁻¹] | self-cleavage kobs at 2500 uM GlcN6P [6] [s⁻¹] | self-cleavage kobs at 10000 uM GlcN6P [7] [s⁻¹] |
| --- | --- | --- | --- | --- | --- | --- | --- |
| U45A A52G | 0.00326 ± 0.00073 | 2900 ± 900 | 5.17e-05 ± 1e-05 | 0.000155 ± 2.1e-05 | 0.000699 ± 8.5e-05 | 0.00135 ± 0.00014 | 0.00293 ± 0.00044 |
| A14G A64U | 0.000311 ± 2.2e-05 | 1830 ± 300 | – | – | 7.9e-05 ± 1e-05 | 0.000199 ± 2.7e-05 | 0.000257 ± 2.3e-05 |
| G41U A53C | 0.000167 ± 4e-05 | – | < 1e-05 | – | 5.64e-05 ± 1.2e-05 | 7.23e-05 ± 9.5e-06 | 0.000139 ± 1.2e-05 |
| G29A G63C | < 1e-05 | – | < 1e-05 | – | – | < 1e-05 | < 1e-05 |
| G40C C70G | 0.000147 ± 2.2e-05 | 973 ± 420 | – | – | 5.48e-05 ± 8.7e-06 | 0.000163 ± 2.9e-05 | 0.000128 ± 1.3e-05 |
| A6U A14G | 0.000657 ± 7.8e-05 | 2280 ± 480 | – | 4.93e-05 ± 2.3e-05 | 0.000135 ± 2.3e-05 | 0.000414 ± 8.3e-05 | 0.000513 ± 8.4e-05 |
| G62C U69A | 1.17e-05 ± 3.8e-06 | – | – | – | – | – | – |
| C10U A15G | 2.54e-05 ± 2e-06 | 4700 ± 910 | < 1e-05 | – | – | – | – |
| C50A C61G | 2.25e-05 ± 7e-06 | – | – | – | – | – | – |
| U57C C70U | 0.00016 ± 1.8e-05 | 741 ± 210 | – | 2.63e-05 ± 8.9e-06 | 7.23e-05 ± 9.1e-06 | 0.000137 ± 1.3e-05 | 0.000124 ± 2.4e-05 |
| G13C C34U G35U | < 1e-05 | – | < 1e-05 | < 1e-05 | – | < 1e-05 | < 1e-05 |
| A6G U55G | 0.000588 ± 4.1e-05 | 2390 ± 350 | – | – | 0.000133 ± 3.4e-05 | 0.000299 ± 5.2e-05 | 0.000473 ± 7.8e-05 |
| A12G G66A | 0.000586 ± 0.00018 | 3600 ± 1700 | – | 2.09e-05 ± 9.7e-06 | 0.000105 ± 1.1e-05 | 0.000195 ± 2.3e-05 | 0.000496 ± 5.7e-05 |
| C16A U46G C70G | 2.12e-05 ± 3.1e-06 | – | – | – | – | – | – |
| A12U G38A | < 1e-05 | – | – | – | – | – | – |
| A48U C71U | 0.000562 ± 8.4e-05 | 1890 ± 590 | – | – | 0.000153 ± 2.3e-05 | 0.000338 ± 5.6e-05 | 0.000461 ± 5.6e-05 |
| A14G U47C | 0.00925 ± 0.0028 | 1160 ± 520 | 0.000316 ± 5.1e-05 | 0.00182 ± 0.00041 | 0.00236 ± 0.00055 | 0.0109 ± 0.0027 | 0.00833 ± 0.0014 |
